In US20220332829A1 (NANJING SANHOME PHARMACEUTICAL, published 2022):
Values belong to the binder of their own block, whether it stands above or below them.

What was measured:
[1] = target: T1, B7-H3 on surface of tumor cell (786-0, MDA-MB-231, Raji-B7-H3 cells) (human, UniProt Q5ZPR3 29-534); assay: FACS on MDA-MB-231 cells
T1 construct: whole, on cells; The making of Raji-B7-H3 cells is not described; also called B7-H3 on the surface of tumor cells; human B7-H3
T1 sequence (looked up): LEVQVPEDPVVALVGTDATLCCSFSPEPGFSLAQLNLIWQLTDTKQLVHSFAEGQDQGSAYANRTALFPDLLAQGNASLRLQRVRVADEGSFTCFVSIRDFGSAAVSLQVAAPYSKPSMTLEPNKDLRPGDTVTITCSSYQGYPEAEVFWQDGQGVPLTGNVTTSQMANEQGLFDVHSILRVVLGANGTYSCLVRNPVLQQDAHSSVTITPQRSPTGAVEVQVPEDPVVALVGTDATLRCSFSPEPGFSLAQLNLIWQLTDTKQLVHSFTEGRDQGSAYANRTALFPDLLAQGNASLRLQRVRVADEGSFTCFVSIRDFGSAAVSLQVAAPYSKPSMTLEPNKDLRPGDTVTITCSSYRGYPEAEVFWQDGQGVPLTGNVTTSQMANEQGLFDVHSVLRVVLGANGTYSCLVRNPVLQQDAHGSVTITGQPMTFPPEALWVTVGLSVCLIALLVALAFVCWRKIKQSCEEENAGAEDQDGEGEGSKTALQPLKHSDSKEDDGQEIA
Procedure: (§1) The binding activity of antibodies to B7-H3 on the surface of tumor cells was analyzed by FACS. Mean fluorescence intensity (MFI) and EC₅₀ detected by FACS indicate the binding activity of the antibody to cells. After 786-0 and MDA-MB-231 cells were digested, they were resuspended in 2% FBS-PBS solution and counted. After raji-B7-H3 cells were collected, they were resuspended in 2% FBS-PBS and counted. The above cells were plated in a cell plate with 1×10⁵ cells per well. The anti-B7-H3 antibody of the present disclosure was used as the primary antibody and added to cell plates in gradient dilution starting from 20 μg/mL with a total of 8 concentrations: 20,000 ng/mL, […], 2,000 ng/mL, 400 ng/mL, 80 ng/mL, 16 ng/mL, 3.2 ng/mL, and 0.64 ng/mL respectively. The plates were incubated at 4° C. for 1 h with hBRCA84D as the positive control antibody. PE-Anti-Human IgG (Biolegend, Cat. No. 409303, 1.25 μl/well) was used as the secondary antibody, washed, and detected for the fluorescence intensity generated by the binding of the antibody to the cell surface by a flow cytometer.

[2] = target: T2, human 4Ig-B7-H3-His protein (human, UniProt Q5ZPR3 29-466); assay: Biacore X100 SPR, 4Ig-B7-H3-His coupled to CM5 chip, antibody injected
T2 construct: also called human B7-H3 protein
T2 sequence: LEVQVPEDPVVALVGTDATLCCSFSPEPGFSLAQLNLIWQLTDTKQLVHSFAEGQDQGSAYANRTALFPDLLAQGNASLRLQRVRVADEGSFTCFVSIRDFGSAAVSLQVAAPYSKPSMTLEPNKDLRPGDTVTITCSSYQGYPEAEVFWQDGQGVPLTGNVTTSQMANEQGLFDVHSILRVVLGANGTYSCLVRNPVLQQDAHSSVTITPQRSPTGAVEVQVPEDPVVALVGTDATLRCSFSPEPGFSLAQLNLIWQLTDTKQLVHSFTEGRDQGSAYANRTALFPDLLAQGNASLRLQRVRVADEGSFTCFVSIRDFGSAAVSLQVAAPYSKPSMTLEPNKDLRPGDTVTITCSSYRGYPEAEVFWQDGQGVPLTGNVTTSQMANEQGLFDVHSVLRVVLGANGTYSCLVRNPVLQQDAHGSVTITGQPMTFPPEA
From the text: The humanized anti-B7-H3 antibodies prepared in Example 4 were subjected to affinity assay by Biacore. The antigen 4Ig-B7-H3-His was first coupled to the surface of a CM5 chip (GE, Cat. No. BR100012), and the active groups of the uncoupled protein were blocked with ethanolamine. After the baseline was stable, the hu39-01, hu65-13, and hBRCA84D antibodies were respectively diluted in equal proportions. The diluted antibodies of each concentration were placed on the sample injection tray of the instrument in sequence, and the program was set to inject samples respectively.

[3] = target: T1, B7-H3 on surface of tumor cell (786-0, …); assay: FACS on Raji-B7-H3 cells
Procedure: as §1

[4] = target: T1, B7-H3 on surface of tumor cell (786-0, …); assay: FACS on 786-0 cells
Procedure: as §1

[5] = target: T1, B7-H3 on surface of tumor cell (786-0, …); assay: cell-based or functional assay

B4: SHS007-39-CHI (antibody, human IgG1, V domains shown)
VH: EVQLQQSGPELVKPGASVKISCKTSGYTFTEYTIHWMKQSHGKSLEWIGGLNPNTGGTTYNQKFKDKATLTVDKSSSTAYMALRSLTSEDSAVYYCARKGGWFFLDYWGQGTTLIVSS
VL: QIVLTQSPAIMSASPREKVTMTCSASSSVSYMHWYQQKSGTSPKRWIYDTSKLASGVPARFRGSGSGTSYSLTISNMEAEDAATYYCQQWSSNPPTFGGGTKVEIK
EC50 Ratio (ADCC, LDH method; EC50 of hBRCA84D divided by EC50 of the antibody; 786-0 target cells, human PBMC effectors) [5]: 212

B5: SHS007-65-CHI (antibody, human IgG1, V domains shown)
VH: EVQLVESGGGLVKPGGSLKLSCAASGFTFSDYGIHWVRQAPEKGLEWVAYISSGSNTIYYADTVKGRFTISRDNAKNTLFLQMTSLRSEDTAIYYCATMVTRWFYYAMDYWGQGTSVTVSS
VL: QIVLTQSPAIMSASPGEKVTMTCSASSSVSYMYWYQQKSGTSPKRWIYDTSKLASGVPARFSGSGSGTSYSLTINNMEAEDAATYYCQQWSSNPPTFGAGTKLELK
EC50 Ratio (ADCC, LDH method; EC50 of hBRCA84D divided by EC50 of the antibody; 786-0 target cells, human PBMC effectors) [5]: 18.6

B6: SHS007-59-CHI (antibody, V domains shown)
VH: EVQLQQSGPELVKPGTSVKIPCKASGYTFTDYHMDWVKQSHGKSLEWIGDINPNNGGTIYNQKFKGKATLTVDKSSSTAYMELRGLTSEDTAVYYCARGGLHDYWGPGTTLTVSS
VL: DIVMTQSQKFMSTKVGDRVSITCKASQSVGTAVAWYQQKPGQSPKLLIYSTSNRYTGVPDRFTNNASGTDFTLTISNVQSADLADYFCQQYGNYPLTFGGGTKLEIK
EC50 Ratio (ADCC, LDH method; EC50 of hBRCA84D divided by EC50 of the antibody; 786-0 target cells, human PBMC effectors) [5]: 4.4

B7: SHS007-17-CHI (antibody, human IgG1, V domains shown)
VH: QVHLQQSGPELVKPGASVKMSCKASGFTFTDYVVSWVKQRTGQGLEWIGEIYPGGGFIHYNEKFKGKATLTADKSSNTAYMQLTSLTSEDSAVYFCARFPKYYFDYWGQGTTLTVSS
VL: DVVMTQTPLSLPVSLGDQASISCRSSQSIVHSNRYTYLEWYLQKPGQSLKLLIYGVSNRFSGVPDRFSGSGSGTDFTLKISRVEAEDMGVYYCFQSTLFPWTFGGGTKLEIK
EC50 Ratio (ADCC, LDH method; EC50 of hBRCA84D divided by EC50 of the antibody; 786-0 target cells, human PBMC effectors) [5]: 20.1

B8: SHS007-51-CHI (antibody, V domains shown)
VH: EVQLVESGGDSVKPGGSLKLSCAASGFTFSSFGMSWVRQTPDKRLEWVATINSGDNYSYSPDSVKGRFTISRDNAKNILYLQMSSLKSEDTAMYYCARPHIFYYGSPAWFAYWGQGTLVTVSA
VL: DVVMTQTPLSLPVSLGDQASVSCRSRQSLVHSNGNTYLHWYLQRPGQSPKLLIYKVSNRFSGVPDRFSGSGSGTDFTLKISRVEAEDLGVYFCSQSTHVPLTFGAGTKLELK
EC50 Ratio (ADCC, LDH method; EC50 of hBRCA84D divided by EC50 of the antibody; 786-0 target cells, human PBMC effectors) [5]: 6.6

Now from value to binder:

EC50 [1]: 0.14 µg/mL
Mean fluorescence intensity (MFI) [1]: 151000
Kd [2]: 0.198 nM
koff [2]: 1.89e-05 s⁻¹
kon [2]: 95400 M⁻¹ s⁻¹
EC50 [3]: 0.266 µg/mL
Mean fluorescence intensity (MFI) [3]: 566000
EC50 [4]: 0.266 µg/mL
Mean fluorescence intensity (MFI) [4]: 566000
B1: hu65-13 (antibody, human IgG1, V domains shown)
VH: EVQLVESGGGLVQPGGSLRLSCAASGFTFSDYGIHWVRQAPGKGLEWVSYISSGSNTIYYADTVKGRFTISRDNAKNSLYLQMNSLRAEDTAVYYCATMVTRWFYYAMDYWGQGTTVTVSS
VL: EIVLTQSPATLSLSPGERATLSCSASSSVSYMYWYQQKPGQAPRRLIYDTSKLASGVPARFSGSGSGTDYTLTISSLEPEDFAVYYCQQWSSNPPTFGQGTKLEIK
notes: expressed in HEK293E; also called humanized anti-B7-H3 antibody hu65-13

EC50 Ratio (ADCC, LDH method; EC50 of hBRCA84D divided by EC50 of the antibody; 786-0 target cells, human PBMC effectors) [5]: 7.1
B2: SHS007-72-CHI (antibody, V domains shown)
VH: QVQLVQSGPELKKPGETVKISCKASGYTFTNYGMYWVKQAPGEGLKWMGWINTHTGEPTYGDDFKGRFAFSLETPATIAFLEISILKNEDTATYFCARKSFGDFIYAMDFWGQGTSVTVSS
VL: DIQMTQTTSSLSASLGDRVTISCRASQDIGKYLNWYQQKPDGTVKLLIYYTSRLHLGVPSRFSGSGSGTDFSLTISNLEQEDTATYFCQQGTTLPPTFGGGTKVEIK

EC50 Ratio (ADCC, LDH method; EC50 of hBRCA84D divided by EC50 of the antibody; 786-0 target cells, human PBMC effectors) [5]: 11.4
B3: SHS007-95-CHI (antibody, V domains shown)
VH: EVKLVESGGELVKPGGSLKLSCAASGFTLSSYVMSWVRQTPEKRLEWVAAISRYGDPTNFPDNMRDRFTISRDNAKNTLSLQMSSLRSEDTALYFCARHHFDGTSWYFDVWGPGTTVTVSS
VL: EIVLTQSPALMAASPGERVTITCSVSSSISSIDLHWYQQKSGTFPKLWIYGTSNLASGVPVRFSGSGSGTSYSLTISTMEAEDAATYYCQQWSSFPLTFGSGTKLEIK
